# Reference: the nanobody polyreactivity screen of Harvey et al. (2022)
# Assay: yeast display, Sf9 membrane polyspecificity reagent, FACS + sequencing; frameworks hold sequencing errors
# Summary of the method: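 In a synthetic yeast display library (Saccharomyces cerevisiae BJ5465), nanobody expression was induced with galactose for 36–48 hours. FACS gates were set low and high (top ~1%) using anti-HA fluorescence for expression and streptavidin fluorescence for binding of the Sf9 membrane reagent. Each polyreactivity label is drawn from the gate of origin.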
row,Sequence,polyreactivity (PSR sort gate)
1,QVQLVESGGGLVQAGGSLRLSCAASGSIFVLYAMGWYRQAPGKERELVAAITTGGGTNYADSVKGRFTISRDNAKNTVYLQMNSLKPEDTAVYYCNADAYGTPEFTSYAVRYDYWGQGTQVTVSS,low polyreactivity
2,QVQLVESGGGLVQAGGSLRLSCAASGSIFVNNALGWDRQAPGKDWELVAAISSRGGSTYYADSVKGRFTISRDNAKNTVYLQMHSLKPEDTAVYYCAAEYDGPYYSFYPEQRYYWGQGNQVTVSS,low polyreactivity
3,QVQLVESGGGLVQAGGSLRLSCAASGSIFVNNAMGWYRQAPGKERELVAAIRRSGGNTYYADSVKGRFTISRDNAKNTVYLQLNSLKPEDTAVYYCNVVRRSDSIRAKSRDYWGQGTQVTVSS,high polyreactivity
4,QVQLVESGGGLVQAGGSLRLSCAASGSIFVNNAMGWYRQAPGKERELVAAISRSGTRTYYADSVKGRFTISRDNAKNTVYLQMNSLKPEDTAVYYCAVDYYYRMDYWGQGTQVTVSS,high polyreactivity
5,QVQLVESGGGLVQAGGSLRLSCAASGSIFVNNAMGWYRQAPGKERELVAAISSRSSRTFYADSVKGRFTISRDNAKISVYFHMNSLKPVDTGVYYWAVKKRSPHGDYCGQGTQVTVSS,high polyreactivity
6,QVQLVESGGGLVQAGGSLRLSCAASGSIFVNNAMGWYRQAPGKERELVAAISSRSSRTFYADSVKGRFTISRDNAKNTVYLQMNSLKPDDNAVFYCAVNNRAPDGEYWGLGTQVTVSS,high polyreactivity
7,QVQLVESGGGLVQAGGSLRLSCAASGSIFVNNAMGWYRQAPGKERELVAAISSRSSRTFYADSVKWRFTISRDNAKNTVYLQMNCLKPEDTAVYSCAVKKRAPDGDYWGQGTQVTVSS,high polyreactivity
8,QVQLVESGGGLVQAGGSLRLSCAASGSIFVNYAMGWYRQAPGKERELVAAISGRGGSTYYADSVKGRFTISRDNAKNTVYLQMNSLKPEDTAVFYCARYGYYGHDWGQGTQVTVSS,high polyreactivity
9,QVQLVESGGGLVQAGGSLRLSCAASGSIFVNYAMGWYRQAPGKERELVAAISTGGGRTFYADSVKGRFTISRDNAKNTVYLQMNSLKPEDTAVYYCNNLGRTEYDYWGQGTQVTVSS,high polyreactivity
10,QVQLVESGGGLVQAGGSLRLSCAASGSIFVPNAMGWYRQAPGKERELVAAISGIGGSTSYADSVKGRFTISRDNAKNTVYLQMNSLKPEDTAVYYCARADKLHTRGWGRWGSGSYSWGQGTQVTVSS,low polyreactivity
11,QVQLVESGGGLVQAGGSLRLSCAASGSIFVPYAMGWYIQAPGKERELVAAISSRGGSTYYADSVKGRFTISRDNAKNTVYLQMNSLKPEDTAVYYCNTDISRNYYWALYGYWGQGTQVTVSS,low polyreactivity
12,QVQLVESGGGLVQAGGSLRLSCAASGSIFVPYAMGWYRQAPGKERELVAAINHGGGRTYADSVKGRFTISRDNAKNTVYLQMNSLKPEDTAVYYCAADGAHKIGYYRYYYWGQGTQVTVSS,low polyreactivity
13,QVQLVESGGGLVQAGGSLRLSCAASGSIFVPYAMGWYRQAPGKERELVAVIRYRGGTTYYADSVKGRFTLSRDNAKNTVYLQMNSLKPEDTAVYYCEASARRYPPAAGVPYRYDYWGQGTQVTVSS,high polyreactivity
14,QVQLVESGGGLVQAGGSLRLSCAASGSIFVQYAMGWYRQAPGKERELVATISSSGGSTYYADSVKGRFTISRDNAKNTVYLQMNRLKPEDTAVYYCAADWTLDPSYGYYADDYWGQGTQVTVSS,low polyreactivity
15,QVQLVESGGGLVQAGGSLRLSCAASGSIFVRNAMGWYRQAPGKERELVAAISWRGGSTYYADSVKGRFTISRDNAKNTVYLQMNSLKPEDTAGYYCAARRWSPRSGLGYGYWGQGTQVTVSS,high polyreactivity
16,QVQLVESGGGLVQAGGSLRLSCAASGSIFVRNAMGWYRQAPGKERELVAGISASGGSTYYADSVKGRFTISRDNAKNTVYLQMNSLKPEDTAVYYCANKVSTRFARYRYDYWGQGTQVTVSS,high polyreactivity
17,QVQLVESGGGLVQAGGSLRLSCAASGSIFVRNGMGWYRQAPGKERELVASFTSGTITYYADSVKGRFTISRDNARNTVYLQMNRLKPDDTAVYYCAARRDRGRVKFYYWGQGTQVTVSS,high polyreactivity
18,QVQLVESGGGLVQAGGSLRLSCAASGSIFVRNTMGWYRQAPGKERELVATISSGGRTYYADSVKGRFTISRDNAKNTVYLQMNSLKPEETAVYYCAAGYSYAQYSYPFLSFAFGYWGQGTQVTVSS,high polyreactivity
19,QVQLVESGGGLVQAGGSLRLSCAASGSIFVRNVMGWYRQAPGKERELVAAISGSGGSTYYADSVKGRFTISRDNAKNTVYLQMNSLKPEDTAVYYCAAPRNLYGVYSYYYWGQGTQVTVSS,high polyreactivity
20,QVQLVESGGGLVQAGGSLRLSCAASGSIFVRYDMGWYRQAPGKERELVAAISWNGGRTYYADSVKGRFTISRDNAKNTVYLQMNSLKPEDTAVYYCNAVSKGLGSGLDYWGQGTQVTVSS,high polyreactivity
21,QVQLVESGGGLVQAGGSLRLSCAASGSIFVSNAMGWSRPAPGKDRELVAGINYSGGSTYYADSVKGRFTISRDNAKNTVYLQLTSLKPEDTAVYYCARRRPYQWPYNYWGQGTQVTVSS,high polyreactivity
22,QVQLVESGGGLVQAGGSLRLSCAASGSIFVSNAMGWYRQAPGKERELVAAISGGRSTYYADSVKGRFTISRDNAKNTVYLQMNSLKPEDTAVYYCAKKGGHRTYGYDSWGQGTQVTVSS,low polyreactivity
